Reference: paper PMC3354570 (Structure(London, England:1993), 2012)

Biological target: the molecule itself
Assay: AUC

B1: human apolipoprotein A-IV core domain, residues 64-335 (domain or fragment, UniProt P06727 84-355, looked up)
chain: ATELHERLAKDSEKLKEEIGKELEELRARLLPHANEVSQKIGDNLRELQQRLEPYADQLRTQVSTQAEQLRRQLTPYAQRMERVLRENADSLQASLRPHADELKAKIDQNVEELKGRLTPYADEFKVKIDQTVEELRRSLAPYAQDTQEKLNHQLEGLTFQMKKNAEELKARISASAEELRQRLAPLAEDVRGNLRGNTEGLQKSLAELGGHLDQQVEEFRRRVEPYGENFNKALVQQMEQLRQKLGPHAGDVEGHLSFLEKDLRDKVNSFF
For B1, the “stoichiometry N” value was 2.
